The test system of assay [1] is pseudo-typed virus having S protein of SARS-COV-2 (WT) derived from Wuhan. It counts as cell-based.
Assay [2] has as its target T1, Human TMPRSS2 expressed on cells (human, UniProt O15393 1-492). Nature of the assay: cell-based or functional assay.
In assay [3] the target is T1, Human TMPRSS2 expressed on cells. Nature of the assay: cell-based or functional assay. This is another data set of the same source.
Assay [4] concerns the target Cynomolgus monkey TMPRSS2 expressed on cells (cynomolgus monkey). Nature of the assay: flow cytometry, Daudi transfectant.
In assay [5] the target is T2, Human TMPRSS2 recombinant protein, extracellular region (N-terminal His tag, C-terminal Strep-tag II) (human, UniProt O15393 106-492).
T2 construct: also called Human TMPRSS2 recombinant proteins; extracellular region of human TMPRSS2
Nature of the assay: SPR (BIAcore); rounded repeat of Table 1.

The target in a further assay is T3, F321A (human, UniProt O15393).
T3 construct: expressed on COS7 cells with GFP via IRES; also called TMPRSS2 alanine substitution F321A; RQSFMA
Nature of the assay: flow cytometry, COS7 transfectant.

The target in assay [6] is T1, Human TMPRSS2 expressed on cells. Nature of the assay: flow cytometry, COS7 transfectant.
Assay [7] shares this target. Kind of assay: flow cytometry, Daudi transfectant.
Assay [8] has as its target Mouse TMPRSS2 expressed on cells (mouse, UniProt Q9JIQ8 1-490). Nature of the assay: flow cytometry, Daudi transfectant.
The next assay deals with T4, TMPRSS-11D (human, UniProt O60235).
T4 sequence (single chain, looked up): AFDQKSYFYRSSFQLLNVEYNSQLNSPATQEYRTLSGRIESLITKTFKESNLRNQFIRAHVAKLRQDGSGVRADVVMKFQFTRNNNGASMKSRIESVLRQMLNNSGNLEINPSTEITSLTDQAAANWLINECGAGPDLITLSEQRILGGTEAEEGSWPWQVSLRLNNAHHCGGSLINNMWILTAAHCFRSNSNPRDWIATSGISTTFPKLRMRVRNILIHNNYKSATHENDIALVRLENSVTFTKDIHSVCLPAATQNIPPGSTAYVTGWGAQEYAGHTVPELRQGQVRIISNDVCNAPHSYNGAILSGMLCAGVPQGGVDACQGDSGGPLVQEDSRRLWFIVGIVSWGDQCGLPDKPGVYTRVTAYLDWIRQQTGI
Kind of assay: ELISA, Strep-tagged protein on streptavidin plate.

The next assay deals with T5, TMPRSS-11E (human, UniProt Q9UL52).
T5 sequence (single chain, looked up): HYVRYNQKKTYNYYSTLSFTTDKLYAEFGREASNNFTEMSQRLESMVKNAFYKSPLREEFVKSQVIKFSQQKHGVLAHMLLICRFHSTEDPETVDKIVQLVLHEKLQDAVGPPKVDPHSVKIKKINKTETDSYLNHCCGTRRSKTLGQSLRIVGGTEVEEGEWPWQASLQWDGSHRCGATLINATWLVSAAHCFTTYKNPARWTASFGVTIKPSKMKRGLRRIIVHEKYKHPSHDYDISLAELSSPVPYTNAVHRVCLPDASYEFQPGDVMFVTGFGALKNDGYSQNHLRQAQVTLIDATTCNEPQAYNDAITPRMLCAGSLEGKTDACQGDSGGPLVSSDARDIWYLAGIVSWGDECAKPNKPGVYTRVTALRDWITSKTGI
Kind of assay: ELISA, Strep-tagged protein on streptavidin plate.

Another assay deals with TMPRSS-11F (human, UniProt Q6ZWK6). Nature of the assay: ELISA, Strep-tagged protein on streptavidin plate.
Another assay concerns the target T6, TMPRSS-13 (human, UniProt Q9BYE2).
T6 sequence (single chain, looked up): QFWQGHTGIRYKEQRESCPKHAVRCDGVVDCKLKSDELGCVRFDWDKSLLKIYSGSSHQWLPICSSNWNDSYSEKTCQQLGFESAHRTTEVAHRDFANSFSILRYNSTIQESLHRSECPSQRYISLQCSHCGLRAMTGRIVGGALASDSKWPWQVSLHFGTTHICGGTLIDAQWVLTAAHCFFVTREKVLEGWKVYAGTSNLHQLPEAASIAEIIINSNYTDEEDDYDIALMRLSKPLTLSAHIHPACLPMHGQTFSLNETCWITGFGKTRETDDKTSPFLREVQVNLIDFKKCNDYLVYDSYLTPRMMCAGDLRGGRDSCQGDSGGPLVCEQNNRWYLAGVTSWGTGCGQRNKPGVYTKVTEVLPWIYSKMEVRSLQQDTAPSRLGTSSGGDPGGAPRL
Nature of the assay: ELISA, Strep-tagged protein on streptavidin plate.

Assay [9] has as its target T2, Human TMPRSS2 recombinant protein, …. Kind of assay: SPR (BIAcore), captured mAb, soluble human TMPRSS2 extracellular region.

T2 sequence (O15393 other isoform, or with tags, fused parts or gaps limits assumed): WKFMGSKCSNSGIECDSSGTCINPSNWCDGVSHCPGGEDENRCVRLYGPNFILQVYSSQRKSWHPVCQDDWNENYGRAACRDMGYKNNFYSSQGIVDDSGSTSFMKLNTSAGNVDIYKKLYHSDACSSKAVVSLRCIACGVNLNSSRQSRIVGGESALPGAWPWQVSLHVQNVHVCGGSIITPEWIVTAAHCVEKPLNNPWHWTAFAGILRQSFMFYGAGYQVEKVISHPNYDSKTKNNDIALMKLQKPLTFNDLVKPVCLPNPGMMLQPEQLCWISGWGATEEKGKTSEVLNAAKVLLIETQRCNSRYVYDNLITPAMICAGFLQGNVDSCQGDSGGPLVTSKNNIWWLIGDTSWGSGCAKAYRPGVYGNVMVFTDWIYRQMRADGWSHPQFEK
T1 sequence (O15393 whole entry): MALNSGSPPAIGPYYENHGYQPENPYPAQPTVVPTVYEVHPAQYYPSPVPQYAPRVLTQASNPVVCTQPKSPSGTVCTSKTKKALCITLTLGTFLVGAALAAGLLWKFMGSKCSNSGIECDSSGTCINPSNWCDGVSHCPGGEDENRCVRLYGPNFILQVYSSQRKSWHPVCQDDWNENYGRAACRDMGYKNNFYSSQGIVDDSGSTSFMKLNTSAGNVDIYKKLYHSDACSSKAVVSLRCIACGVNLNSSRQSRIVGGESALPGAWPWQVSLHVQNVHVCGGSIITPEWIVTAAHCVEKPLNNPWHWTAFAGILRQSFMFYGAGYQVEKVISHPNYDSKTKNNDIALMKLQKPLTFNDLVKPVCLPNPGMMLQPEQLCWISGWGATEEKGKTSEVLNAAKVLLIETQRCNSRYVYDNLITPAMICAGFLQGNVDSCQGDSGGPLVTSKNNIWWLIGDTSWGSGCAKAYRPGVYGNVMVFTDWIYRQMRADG
Sequence of Mouse TMPRSS2 expressed on cells (Q9JIQ8 whole entry): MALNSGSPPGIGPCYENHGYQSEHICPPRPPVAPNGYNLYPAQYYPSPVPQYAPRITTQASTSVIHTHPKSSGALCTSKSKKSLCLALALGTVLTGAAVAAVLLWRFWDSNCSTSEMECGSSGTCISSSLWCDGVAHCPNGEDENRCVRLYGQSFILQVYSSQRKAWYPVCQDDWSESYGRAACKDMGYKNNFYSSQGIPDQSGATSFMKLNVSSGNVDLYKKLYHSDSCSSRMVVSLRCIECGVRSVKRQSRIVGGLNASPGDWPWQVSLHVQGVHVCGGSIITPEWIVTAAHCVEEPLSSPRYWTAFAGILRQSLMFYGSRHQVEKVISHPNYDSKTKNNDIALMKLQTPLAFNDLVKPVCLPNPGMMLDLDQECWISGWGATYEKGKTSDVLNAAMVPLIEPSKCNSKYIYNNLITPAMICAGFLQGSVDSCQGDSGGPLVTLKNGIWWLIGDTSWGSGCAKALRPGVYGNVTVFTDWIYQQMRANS
Sequence of TMPRSS-11F (Q6ZWK6 54-438 limits assumed): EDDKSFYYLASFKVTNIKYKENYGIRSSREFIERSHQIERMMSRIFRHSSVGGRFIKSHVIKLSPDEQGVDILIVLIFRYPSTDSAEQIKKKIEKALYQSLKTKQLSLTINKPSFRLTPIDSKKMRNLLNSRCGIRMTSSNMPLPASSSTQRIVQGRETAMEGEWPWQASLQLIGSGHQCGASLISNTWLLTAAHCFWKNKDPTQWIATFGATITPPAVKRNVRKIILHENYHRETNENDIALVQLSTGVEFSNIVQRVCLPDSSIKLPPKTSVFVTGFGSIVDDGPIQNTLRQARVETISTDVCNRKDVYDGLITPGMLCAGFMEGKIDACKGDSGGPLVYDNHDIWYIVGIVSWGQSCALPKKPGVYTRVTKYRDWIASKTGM
T3 sequence (O15393 whole entry F321A): as the sequence (O15393 whole entry) above, with F321A counted along it

Turning to `N=C(N)c1ccc2cc(OC(=O)c3ccc(N=C(N)N)cc3)ccc2c1` [Nafamostat, nafamostat], the “infection inhibiting effect on WT-type virus” value in assay [1] is “exhibited infection inhibiting effects”.

B1: 1864_10 antibody (antibody, V domains shown)
VH: QVQLQQSGPALVKPGASLKISCEASGYTFTYYSINWVKQRPGQGLEWIGWIFPGSGSTYYNEKFKGKATLTIDKSSSTAYMLLSSLTSEDSAVYFCARSDYGSAYGYFDVWGTGTTVTVSS
VL: DIVLTQSPASLAVSLGQRATISCRASKSVSTSGYSYMHWYQQKPGQPPKLLIYLASNLESGVPARFSGSGSGTDFTLNIHPVEEEDAATYYCQHSRDLPLTFGAGTKLELK
With B1, the “Activity: Calu-3 Inhibiton” value in assay [2] turned out to be 67.6. Also, in [3], the “IC90, First run; live SARS-CoV-2 infection of Calu-3 cells” value is 0.11 µg/mL. Besides, in assay [3], the “IC90, Second run; live SARS-CoV-2 infection of Calu-3 cells” value was 0.16 µg/mL. For the same molecule, the Q2 (percent of cells GFP+ and stained) in assay [4] is 2.27; with F321A, 7.85; in assay [6], 10.5; in assay [7], 100; in assay [8], 98.1. The equilibrium dissociation constant (Kd) in assay [5] turned out to be 5.1 nM; in assay [9], 5.14 nM. For the same molecule, the binding result with TMPRSS-11D, in the assay with TMPRSS-11E, with TMPRSS-11F and in the assay with TMPRSS-13 was “no binding (tested: 10 µg/mL)” in each case. The off-rate constant (koff) in [9] was found to be 0.00289 s⁻¹. Also, the association rate constant (kon) in assay [9] was determined as 563000 M⁻¹ s⁻¹.
